Assays:
[1] = target: chimeric hexon of Ad5:H1.2 (Ad5 vector, hexon residues 112-593 from Ad1 hexon, HVR7 IGVTRTY), on the virion (human adenovirus type 5 | human adenovirus type 1) (UniProt P04133); assay: SPR; Biacore T200; about 300 to 5,000 RU of Ad virions immobilised on a CM5 chip, coagulation factors flowed over at four concentrations, 50 uL/min; 10 mM HEPES, 150 mM NaCl, 1 mM CaCl2, 0.5 mM MgCl2, 0.1% BSA, 0.05% polysorbate 20, pH 7.4; global fit to a 1:1 kinetic interaction model, double referencing
[2] = target: chimeric hexon of Ad5:H57.1 (Ad5 vector, hexon residues 112-593 from Ad57 hexon), on the virion (human adenovirus type 5 | human adenovirus type 57) (UniProt P04133); assay: as above
[3] = target: chimeric hexon of Ad5:H6.1 (Ad5 vector, hexon residues 112-593 from Ad6 hexon), on the virion (human adenovirus type 5 | human adenovirus type 6) (UniProt P04133); assay: as above
[4] = target: hexon of Ad5.10 (Ad5 vector, hexon HVR1 replaced with the HVR1 of Ad6 hexon), on the virion (human adenovirus type 5) (UniProt P04133); assay: as above
[5] = target: chimeric hexon of the Ad5 vector Ad5:H6.4 (Ad6 hexon section with HVR7 mutations, on virions) (human adenovirus 5 | human adenovirus 6) (UniProt P04133); assay: SPR; Biacore T200; about 300 to 5,000 RU of Ad virions immobilised on a CM5 chip, coagulation factors flowed over at four concentrations, 50 uL/min; running buffer 10 mM HEPES, 150 mM NaCl, 1 mM CaCl2, 0.5 mM MgCl2, 0.1% BSA, 0.05% polysorbate 20, pH 7.4; regeneration with 3 mM EDTA; global fit to a 1:1 kinetic interaction model, double referencing
[6] = target: chimeric hexon of the Ad5 vector Ad5:H1.6 (Ad1 hexon section with HVR7 mutations, on virions) (human adenovirus 5 | human adenovirus 1) (UniProt P04133); assay: as above
[7] = target: chimeric hexon of the Ad5 vector Ad5:H6.3 (Ad6 hexon section with HVR7 mutations, on virions) (human adenovirus 5 | human adenovirus 6) (UniProt P04133); assay: as above
[8] = target: chimeric hexon of the Ad5 vector Ad5:H6.2 (Ad6 hexon section with HVR7 mutations, on virions) (human adenovirus 5 | human adenovirus 6) (UniProt P04133); assay: as above
[9] = target: chimeric hexon of Ad5:H6.4 (Ad5 vector, hexon residues 112-593 from Ad6 hexon, HVR7 IGITDAF), on the virion (human adenovirus type 5 | human adenovirus type 6) (UniProt P04133); assay: SPR; Biacore T200; about 300 to 5,000 RU of Ad virions immobilised on a CM5 chip, coagulation factors flowed over at four concentrations, 50 uL/min; 10 mM HEPES, 150 mM NaCl, 1 mM CaCl2, 0.5 mM MgCl2, 0.1% BSA, 0.05% polysorbate 20, pH 7.4; global fit to a 1:1 kinetic interaction model, double referencing
[10] = target: chimeric hexon of Ad5:H6.3 (Ad5 vector, hexon residues 112-593 from Ad6 hexon, HVR7 IGNTETF), on the virion (human adenovirus type 5 | human adenovirus type 6) (UniProt P04133); assay: as above

Substance | Kd [1] | Kd [2] | Kd [3] | Kd [4] | Kd [5] | koff [5] | kon [5] | koff [6] | Kd [7] | koff [7] | kon [7] | Kd [8] | koff [8] | kon [8] | Kd [9] | Kd [10] | Kd [6] | kon [6]
bovine coagulation factor X (from UniProt P00743 41-492) (natural protein) | 1100 nM | 28 nM | 97 nM | 276 nM | – | – | – | – | – | – | – | – | – | – | – | – | – | –
mouse prothrombin (coagulation factor II) (from UniProt P19221 44-618) (natural protein) | 1300 nM | 10 nM | 8.6 nM | 356 nM | 32000 nM | 0.563 s⁻¹ | 17800 M⁻¹ s⁻¹ | 1.41 s⁻¹ | 1600 nM | 0.0304 s⁻¹ | 19700 M⁻¹ s⁻¹ | 560 nM | 0.012 s⁻¹ | 21300 M⁻¹ s⁻¹ | 32000 nM | 1600 nM | – | –
mouse coagulation factor X (from UniProt O88947 41-481) (natural protein) | 5 nM | 0.65 nM | 0.31 nM | 0.58 nM | 95 nM | 0.0169 s⁻¹ | 178000 M⁻¹ s⁻¹ | 0.638 s⁻¹ | 1200 nM | 0.26 s⁻¹ | 214000 M⁻¹ s⁻¹ | 681 nM | 0.121 s⁻¹ | 178000 M⁻¹ s⁻¹ | 95 nM | 1200 nM | 4200 nM | 152000 M⁻¹ s⁻¹
human coagulation factor X (from UniProt P00742 41-488) (natural protein) | 650 nM | 58 nM | 43 nM | 1.1 nM | – | – | – | – | – | – | – | – | – | – | – | – | – | –

— PMC9536601
